Source: patent EP4386000A1 (Nanjing Novoacine Bio-Technology Co., Ltd., dated 2024)
Read-outs that look alike come from different tables or passages of the source.

T1: human CD25 (NP_000408.1) (Met 1-Cys 213) C-terminally fused with 6-histidine tag (human, UniProt P01589 22-213)
T1 construct: range 1-213; Expressed in CHO-K1 cells; also called human CD25-his
T1 sequence: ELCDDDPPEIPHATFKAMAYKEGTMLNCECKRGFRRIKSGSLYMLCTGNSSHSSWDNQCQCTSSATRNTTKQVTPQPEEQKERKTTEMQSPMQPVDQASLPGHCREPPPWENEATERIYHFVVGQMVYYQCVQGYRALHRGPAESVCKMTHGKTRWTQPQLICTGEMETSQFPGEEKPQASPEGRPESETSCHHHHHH

T2: CD25 on CD4+CD25+ Treg cells isolated from human PBMCs (human, UniProt P01589 22-272)
T2 sequence (looked up): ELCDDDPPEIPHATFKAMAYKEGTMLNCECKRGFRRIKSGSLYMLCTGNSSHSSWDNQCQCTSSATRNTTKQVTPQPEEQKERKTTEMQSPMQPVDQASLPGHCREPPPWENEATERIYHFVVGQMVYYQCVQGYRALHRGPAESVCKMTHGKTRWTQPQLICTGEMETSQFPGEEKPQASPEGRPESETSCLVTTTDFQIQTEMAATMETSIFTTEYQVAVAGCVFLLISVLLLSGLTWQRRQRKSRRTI

T3: Mouse CD25-his (UniProtKB-P01590, Met1-Lys213) (mouse, UniProt P01590 22-213)
T3 construct: range 1-213; Range begins at Met1 (includes the signal peptide); not shown: his tag
T3 sequence (looked up): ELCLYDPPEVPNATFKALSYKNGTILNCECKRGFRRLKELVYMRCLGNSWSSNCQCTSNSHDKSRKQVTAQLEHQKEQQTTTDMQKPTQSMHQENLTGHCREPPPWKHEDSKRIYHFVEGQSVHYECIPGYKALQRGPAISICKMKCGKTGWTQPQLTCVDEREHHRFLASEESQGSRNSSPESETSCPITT

T4: human CD25 on CHO-K1/hCD25 cells (human, UniProt P01589 22-272)
T4 construct: whole, on cells; The construct of the cell line is not described
T4 sequence (looked up): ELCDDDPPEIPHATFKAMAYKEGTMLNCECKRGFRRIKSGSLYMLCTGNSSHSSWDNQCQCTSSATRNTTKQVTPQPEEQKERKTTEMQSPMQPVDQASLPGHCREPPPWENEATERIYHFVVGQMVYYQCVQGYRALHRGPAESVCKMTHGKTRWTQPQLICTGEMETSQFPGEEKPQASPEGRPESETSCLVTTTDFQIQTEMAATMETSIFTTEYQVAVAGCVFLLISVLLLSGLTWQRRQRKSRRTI


Experiments:
[1] = molecular target: T1, human CD25 (NP_000408.1) (Met 1-Cys …); experiment: SPR (BIAcore X100), human CD25-his captured by anti-histidine antibody, antibody as analyte, 1:1 model
[2] = molecular target: T2, CD25 on CD4+CD25+ Treg cells isolated …; experiment: cell-based or functional assay
[3] = molecular target: T5, cyno CD25-his (NCBI-H6WS54, Met1-Arg213) (cyno); experiment: ELISA, cyno CD25-his coated
T5 construct: range 1-213; Range begins at Met1 (includes the signal peptide)

[4] = molecular target: T1, human CD25 (NP_000408.1) (Met 1-Cys …); experiment: ELISA, human CD25-his coated
[5] = molecular target: T3, Mouse CD25-his (UniProtKB-P01590, …); experiment: ELISA, mouse CD25-his coated
[6] = molecular target: T4, human CD25 on CHO-K1/hCD25 cells; experiment: flow cytometry on CHO-K1/hCD25 cells
[7] = molecular target: T1, human CD25 (NP_000408.1) (Met 1-Cys …); experiment: SPR (BIAcore X100), human CD25-his captured by anti-histidine antibody, antibody as analyte, 1:1 model; remark: listed apart in the source

Binder | Kd [1] [nM] | koff [1] [s⁻¹] | kon [1] [M⁻¹ s⁻¹] | EC50, killing Tregs in vitro (ADCC reporter, jurkat/CD16a/NFAT-luc) [2] [µg/mL] | Relative activity (%) compared with 686, killing Tregs in vitro [2] [%] | EC50 [3] [µg/mL] | EC50 [4] [µg/mL] | Relative activity (%) compared with 686 [4] [%] | binding result [5] | EC50 [6] [µg/mL] | Relative activity (%) compared with 686 [6] [%] | Kd [7] [nM] | koff [7] [s⁻¹] | kon [7] [M⁻¹ s⁻¹]
humanized antibody 2046-36H1L1 (antibody, human IgG1, kappa, V domains shown) VH: EIQLVQSGSELKKPGASVKVSCKASGYTFTTAGMQWVRQAPGQGLEWMGWINTHSGVPKYAEDFKGRFVFSLDTSVSTAYLQISSLKAEDTAVYYCASDYAFGYWGQGTLVTVSS VL: DVVMTQSPLSLPVTLGQPASISCKSSQSLLYSNGKTYLYWLQQRPGQSPRRLIYLVSKLDSGVPDRFSGSGSGTDFTLKISRVEAEDLGVYYCVQGTHFPYTFGQGTKLEIKR | 0.994 | 0.00394 | 3.96e+06 |  |  |  |  |  |  |  |  |  |  | 
humanized antibody 2047-3H1L2 (antibody, human IgG1, kappa, V domains shown) VH: EVQLVQSGAEVKKPGATVKISCKTSGYTFTDYVISWVQQAPGKGLEWMGEIYPGSGSTYYNEKFKGRVTITADISTNTAYMELSSLRSEDTAVYYCASINFDYWGQGTLVTVSS VL: EIVMTQSPATLSLSPGERATLSCRASQSISDYLHWYQQKPGQAPRLLIKYASQSISGIPARFSGSGSGSDFTLTISSLQPEDVAVYYCQSGHSFPYTFGQGTKLEIKR | 1.43 | 0.000498 | 348000 |  |  |  |  |  |  |  |  |  |  | 
chimeric antibody 2047-10H1L2 (antibody, human IgG1, kappa, V domains shown, Chimeric, human IgG1/kappa; also called 2047-10ix) VH: QVQLQQSGPELVRPGVSVKISCKGSGYTFTDYAMHWVKQSHAKSLEWIGVISTYNGNTNYNQKFKGKATMTVDKSSSTAYMELARLTSEDSAIYYCARSYGNYPFDYWGQGTTLTVSS VL: DIKMTQSPSSMYASLGERVTITCKASQDINSYLSWFQQKPGKSPKTLIYRANRLVDGVPSRFSGSGSGQDYSLTISSLEYEDMGIYYCLQYDEFPYTFGGGTKLEIKR |  |  |  | 41.4 | 314 | 2.6 | 0.186 | 56 | no binding (tested: starting at 100 ng/mL) | 0.00246 | 120 | 15.5 | 0.0122 | 788000
chimeric antibody 2046-111H2L1 (antibody, human IgG1, kappa, V domains shown, Chimeric, human IgG1/kappa) VH: DVQLQESGPGLVKPSQSLSLTCTVTGHSITSDYAWNWIRQFPGNKLEWMGYISYSGSTIYNPSLKSRISITRDTSKNQFFLQLNSVTTEDTATYYCARWLLQNYYAMDYWGQGTSVTVSS VL: DVVMTQTPLSLPVSLGDQASISCRSSQSLVHSNGNTYLHWYLRKPGQSPKLLIYKVSNRFSGVPDRFSGSGSGTDFTLKISRVEAEDLGVYFCSQSTHVPLTFGAGTKLELKR |  |  |  | 89.8 | 145 | 0.0447 | 0.0989 | 105 | no binding (tested: starting at 100 ng/mL) | 0.00109 | 132 | 0.819 | 0.000431 | 526000
chimeric antibody 2046-24H2L1 (antibody, human IgG1, kappa, V domains shown, Chimeric, human IgG1/kappa; also called 2046-24ix) VH: DVQLQESGPGLVKPSQSLSLTCTVTGYSITSDYAWNWIRQFPGNKLEWMGYISYGGTTIYNPSLKSRISITRDTSKNQFFLQLNSVTTEDTATYYCARWLLQNYYAMDYWGQGTSVTVSS VL: DVVMTQTPLSLPVSLGDQASISCRSSQSLVHSNGNTYLHWYLQKPGQSPKVLIYKVSNRFSGVPDRFSGSGSGTDFTLKISRVEAEDLGVYFCSQNTHVPLTFGAGTKLELKR |  |  |  | 26.5 | 491 | 0.0424 | 0.106 | 98.2 | no binding (tested: starting at 100 ng/mL) | 0.00143 | 131 | 7.63 | 0.00349 | 458000
chimeric antibody 2046-2H1L1 (antibody, human IgG1, kappa, V domains shown, Chimeric (murine V, human IgG1/kappa); also called 2046-2ix) VH: DVQLQESGPGLVKPSQSLSLTCTVTGYSITSDYAWNWIRHFPGNKLEWMGYITYSGSTVYNPSLKSRISITRDTSKNHFFLQLNSVTTEDTATYYCARWLLQIYYAMDYWGQGTSVTVSS VL: DVVMTQTPLSLPVSLGDQASISCRSSQSLVHSNGNTYLHWYLQKPGQSPKLLIYKVSNRFSGVPDRFSGSGSGTDFTLKISRVEAEDLGVYFCSQSTHVPLTFGAGTKLELKR |  |  |  | 22.2 | 584 | 0.0594 | 0.105 | 99 | no binding (tested: starting at 100 ng/mL) | 0.00192 | 63.8 | 4.27 | 0.00318 | 745000
chimeric antibody 2046-61H1L2 (antibody, human IgG1, kappa, Chimeric, human IgG1/kappa; also called 2046-61ix) heavy: not shown light: DVVMTQTPLSLPVSLGDQASISCRSSQSLVHSNGNTYLHWNLQKPGQSPKLLIYKVSNRFSGVPDRFSGSGSGTDFTLKISRVEAEDLGVYFCSQSTHVPLTFSAGTKLELKRTVAAPSVFIFPPSDEQLKSGTASVVCLLNNFYPREAKVQWKVDNALQSGNSQESVTEQDSKDSTYSLSSTLTLSKADYEKHKVYACEVTHQGLSSPVTKSFNRGEC |  |  |  | 34.1 | 380 | 0.0601 | 0.144 | 72.2 | no binding (tested: starting at 100 ng/mL) | 0.00114 | 107 | 9.44 | 0.0121 | 1.28e+06
chimeric antibody 2046-18H1L1 (antibody, human IgG1, kappa, V domains shown, Chimeric, human IgG1/kappa; also called 2046-18ix) VH: DVQLQESGPGLVKPSQSLSLTCTVTGYSITSDYAWNWIRQFPGNKLEWMGYISYSGITIYNPSLKSRISITRDTSKNQFFLQLNSVTTEDTATYYCARWLLQIYYAMDYWGQGTSVTVSS VL: DVVMTQTPLSLPVSLGDQASISCSSSQSLVHSNGNTYLHWYLHKPGQSPKLLIYKVSNRFSGVPDRFSGSGSGTDFTLKISRVEAEDLGVYFCSQSTHVPLTFGAGTKLELKR |  |  |  | 31.7 | 410 | 0.0483 | 0.102 | 102 | no binding (tested: starting at 100 ng/mL) | 0.00171 | 110 | 0.703 | 0.000326 | 463000
humanized antibody 2047-10H2L2 (antibody, human IgG1, kappa, V domains shown) VH: EVQLVQSGAEVKKPGATVKISCKGSGYTFTDYAMHWVQQAPGKGLEWMGVISTYSGNTNYNQKFKGRVTITVDKSTSTAYMELSSLRSEDTAVYYCARSYGNYPFDYWGQGTLVTVSS VL: DIQMTQSPSSLSASVGDRVTITCKASQDITSYLSWFQQKPGKAPKTLIYRANRLVDGVPSRFSGSGSGQDYTLTISSLQPEDMATYYCLQYDEFPYTFGQGTKLEIKR | 4.46 | 0.00205 | 461000 |  |  |  |  |  |  |  |  |  |  | 
humanized antibody 2046-111H1L1-m2 (antibody, human IgG1, kappa, V domains shown) VH: EVQLQESGPGLVKPSQTLSLTCTVSGHSITSDYAWNWIRQPPGKGLEWIGYISYSGSTIYNPSLKSRVTISRDTSKNQFSLKLSSVTAADTAVYYCARWLLQNYYAMDYWGQGTLVTVSS VL: EIVLTQSPGTLSLSPGERATLSCRSSQSLVHSNGNTYLHWYQQKPGQAPRLLIYKVSNRFSGIPDRFSGSGSGTDFTLTISRLEPEDFAVYYCSQSTHVPLTFGQGTKLEIKR | 6.35 | 0.00414 | 652000 |  |  |  |  |  |  |  |  |  |  | 
chimeric antibody 2047-3H8L2 (antibody, human IgG1, kappa, V domains shown, Chimeric, human IgG1/kappa; also called 2047-3ix) VH: QVQLKQSGAELVKPGASVKMSCKTSGYTFTDYVISWVKQRTGQGLEWIGEIYPGSGSTYYNEKFKGKATLTADISSNTAYMQLSSLTSEDSAVYFCASINFDYWGHGTTLTVSS VL: DIVMTQSPATLSVTPGDRVSLSCRASQSISDYLHWYQQKSHESPRLLIKYASQSISGIPSRFSGSGSGSDFTLSINSVEPEDVGVYYCQNGHSFPYTFGGGTKLEIKR |  |  |  | 857 | 15.2 | 0.189 | 0.111 | 93.6 | no binding (tested: starting at 100 ng/mL) | 0.00143 | 205 | 0.308 | 7.26e-05 | 236000
